# Measured values taken from US20230279151A1.
# B1: anti-IL13 mAb ctrl (antibody, from a related filing, V domains shown)
# VH: EVQLKESGPGLVAPGGSLSITCTVSGFSLTDSSINWVRQPPGKGLEWLGMIWGDGRIDYADALKSRLSISKDSSKSQVFLEMTSLRTDDTATYYCARDGYFPYAMDFWGQGTSVTVSS
# VL: DIVLTQSPASLAVSLGQRATISCRASESVDSYGQSYMHWYQQKAGQPPKLLIYLASNLESGVPARFSGSGSRTDFTLTIDPVQAEDAATYYCQQNAEDSRTFGGGTKLEIK
# Molecular target: human IL13 (IL012, Millipore) (human) (UniProt P35225)
# Assay: SPR, Biacore 3000, antibody captured by anti-human Fc, IL13 as analyte; HEK293-FS expression
# human IL13 (IL012, Millipore) (human), sequence (P35225 35-146 limits assumed): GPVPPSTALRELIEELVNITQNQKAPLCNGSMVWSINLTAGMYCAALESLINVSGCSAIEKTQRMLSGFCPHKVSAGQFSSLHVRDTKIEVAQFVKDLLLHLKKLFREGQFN
binder,measurement,value
B1,Kd,0.0888 nM
same,koff,4.52e-05 s⁻¹
same,kon,508000 M⁻¹ s⁻¹
